Here are results for eight molecules from patent publication US20190092846A1 (Novartis, published 2019).

T1: human recombinant TGF-β2 (human, UniProt P09858 303-414 (pig entry))
T1 construct: also called hTGF-b2; hTGFbeta-2
T1 sequence: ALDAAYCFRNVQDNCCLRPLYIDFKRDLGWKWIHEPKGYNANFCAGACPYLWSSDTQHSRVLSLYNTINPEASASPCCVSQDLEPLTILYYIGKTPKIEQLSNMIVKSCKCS

T2: human TGFβ-2 (residues 303-414, SEQ ID NO: 122) (human, UniProt P61812 303-414)
T2 construct: Construct of the crystal structure with the MOR14797 Fab; also called TGFβ-2 dimer (chains A and B)
T2 sequence: T1 sequence

T3: mouse recombinant TGF-β2 (mouse, UniProt P27090 303-414)
T3 sequence (looked up): T1 sequence with S59T, R60K, K94N

T4: human TGF-β3 (human, UniProt P10600 301-412)
T4 sequence: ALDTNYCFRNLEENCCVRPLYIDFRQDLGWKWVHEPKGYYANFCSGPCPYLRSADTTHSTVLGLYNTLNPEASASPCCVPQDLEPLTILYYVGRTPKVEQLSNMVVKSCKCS

B1: MOR14809 (antibody, human IgG1, lambda, V domains shown)
VH: QVQLVQSGAEVKKPGESLKISCKGSGYSFTRYWIAWVRQMPGKGLEWMGIIDPGTSDTRYSPSFQGQVTISADKSISTAYLQWSSLKASDTAMYYCARIDKSLILHSAFDYWGQGTLVTVSS
VL: SYELTQPLSVSVALGQTARITCSGDNLGGYYAYWYQQKPGQAPVLVIYETNNRPSGIPERFSGSNSGNTATLTISRAQAGDEADYYCASTTQDYLVFVFGGGTKLTVLG
B2: MOR14800 (antibody, human IgG1, lambda, V domains shown)
VH: QVQLVQSGAEVKKPGESLKISCKGSGYSFTRYYVAWVRQMPGKGLEWMGWIDPGQSNTRYSPSFQGQVTISADKSISTAYLQWSSLKASDTAMYYCARMLAWGWFDYWGQGTLVTVSS
VL: SYELTQPLSVSVALGQTARITCSGDNLGGYYAHWYQQKPGQAPVLVIYDTSDRPSGIPERFSGSNSGNTATLTISRAQAGDEADYYCASYDSSLMMVFGGGTKLTVLG
B3: MOR14797 (antibody, human IgG1, kappa, V domains shown)
VH: QVTLRESGPALVKPTQTLTLTCTFSGFSLSTSGMGVGWIRQPPGKALEWLAHIYWNDDKSYSTSLKTRLTISKDTSKNQVVLTMTNMDPVDTATYYCARDFYYSGYFDSWGQGTLVTVSS
VL: DIQMTQSPSSLSASVGDRVTITCRASQDISNYLNWYQQKPGKAPKLLIFGASSLQSGVPSRFSGSGSGTDFTLTISSLQPEDFATYYCQQTNTMNTFGQGTKVEIKR
notes: (no LALA)
B4: MOR14799 (antibody, human IgG1, lambda, V domains shown)
VH: B2 VH
VL: B2 VL with T50K
B5: MOR14805 (antibody, human IgG1, lambda, V domains shown)
VH: B2 VH with Q55T
VL: B2 VL with T50K
B6: MOR14787 (antibody, human IgG1, kappa, V domains shown)
VH: QVQLVQSGAEVKKPGSSVKVSCKASGGTFSSYAISWVRQAPGQGLEWMGVIVPKWGHPQYAQKFQGRVTITADESTSTAYMELSSLRSEDTAVYYCAREGDFVVLVLTEHYMGGFDVWGQGTLVTVSS
VL: DIQMTQSPSSLSASVGDRVTITCRASQSIDEYLNWYQQKPGKAPKLLIYAGSNLQSGVPSRFSGSGSGTDFTLTISSLQPEDFATYYCLQGYSYPRTFGQGTKVEIKR
B7: MOR14797 Fab (Fab, V domains shown)
VH: B3 VH
VL: B3 VL
notes: also called Fab fragment of MOR14797
B8: 1D11 (antibody, V domains shown)
VH: QVQLQQSGPELVRPGASVKLSCKASGYIFITYWMNWVKQRPGQGLEWIGQIFPASGSTNYNEMFEGKATLTVDTSSSTAYMQLSSLTSEDSAVYYCARGDGNYALDAMDYWGQGTSVTVSS
VL: DIVLTQSPASLAVSLGQRATISCRASESVDSYGNSFMHWYQQKSGQPPKLLIYLASNLESGVPARFSGSGSRTDFTLTIDPVEADDAATYYCQQNNEDPLTFGAGTKLEIK

Positions count from the first letter of the chain named.

T5 sequence (P01137 279-390 limits assumed): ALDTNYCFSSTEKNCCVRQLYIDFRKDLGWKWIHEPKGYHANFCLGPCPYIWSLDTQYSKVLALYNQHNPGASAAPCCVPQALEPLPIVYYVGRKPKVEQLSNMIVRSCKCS

For one test, the target named is T1, human recombinant TGF-β2. The test can be described thus: conservative reading of the KD value of Table 4.
Broadly, the Kd is the concentration at which binding is half-saturated. Consider B1, for which the Kd is ≤ 0.0001 nM.

As to B2, the Kd was ≤ 0.0001 nM.

As to B3, the Kd was ≤ 0.0001 nM.

A further test deals with T1, human recombinant TGF-β2. The test can be described thus: ratio with the conservative KD of 100 fM.
For the molecule B4, the “fold lower KD for TGFβ2 than for TGFbeta 3” value (“fold lower KD … for TGFbeta 3” below) was found to be 200 fold.

As to B3, the “fold lower KD for TGFβ2 than for TGFbeta-3” value was 270000 fold.

Another test addresses T5, human TGF-β1 (human, UniProt P01137 279-390).
T5 construct: also called TGFbeta-1; TGFbeta 1
The test can be described thus: not named in the sentence (it points to Table 4).
For the molecule B1, the binding result is given as “no binding”.

Turning to B4, the binding result is reported as “no binding”.

As for B5, the binding result is “no binding”.

For the molecule B2, the binding result is “no binding”.

As for B3, the binding result is reported as “no binding”.

For the molecule B6, the binding result is “no binding”.

The target in the next test is T2, human TGFβ-2 (residues 303-414, SEQ ID …). As to the kind of experiment: X-ray crystal structure of the complex. Here is the method: As detailed below, the individual components of the complex were produced using separate expression systems and were combined to generate the purified complex. X-ray crystallography was then employed to generate diffraction data for TGFβ-2 bound to the MOR14797 Fab, elucidating the antigen-binding site.
The TGFβ-2-MOR14797 complex was concentrated to 20 mg/ml, followed by centrifugation at 20,000×g for 10 min prior to dispensing crystallization screens. Crystals were grown at 20° C. using a sitting drop vapor diffusion setup. 0.1 μl of the TGFβ-2-MOR14797 complex was mixed with 0.1 μl of a reservoir solution containing 0.1 M HEPES (pH 7.5) and 70% (v/v) MPD, and the drop was equilibrated against 45 μl of the reservoir solution. Crystals were flash-cooled directly in liquid nitrogen and were sent to the Advanced Photon Source (Argonne National Laboratory, USA) for collection of diffraction data at beamline 17-ID. Datasets were processed using autoPROC (version 1.1.6, Global Phasing Ltd.) to a resolution of 2.4 Å in space group P2₁2₁2₁ with cell dimensions a=77.2 Å, b=122.1 Å, c=130.1 Å, α=90°, β=90°, and γ=90°. […] The Rwork and Rfree values are 17.5% and 23.0%, respectively. The RMSD values for the bond lengths and angles were 0.008 Å and 1.054°.
Consider B7, for which the binding result is “binds”.

The next test addresses T1, human recombinant TGF-β2. The test can be described thus: ratio of the KD values of Table 4.
In the case of B8, the “fold lower KD … for TGFbeta 3” value is 17 fold.

On to B4, for which the “fold lower KD … for TGFbeta 3” value was > 18000 fold.

For the molecule B5, the “fold lower KD for TGFbeta-2 than for TGFbeta-3” value was determined as 73 fold.

On to B3, for which the “fold lower KD for TGFbeta-2 than for TGFbeta-3” value was found to be 6e+06 fold.

For a further test, the target named is T3, mouse recombinant TGF-β2. As to the kind of experiment: cell-based or functional assay.
As for B1, the “CK (IC 50 [pM]), Skeletal Muscle Cell Differentiation Assay (Creatine Kinase)” value was 800 pM and the “RGA (CAGA-12 luc/Smad-2/3 RGA; IC 50 [pM])” value is 598 pM.

B4: the “CK (IC 50 [pM]), Skeletal Muscle Cell Differentiation Assay (Creatine Kinase)” value stood at 909 pM and the “RGA (CAGA-12 luc/Smad-2/3 RGA; IC 50 [pM])” value is 138 pM.

Regarding B5, the “CK (IC 50 [pM]), Skeletal Muscle Cell Differentiation Assay (Creatine Kinase)” value is 629 pM and the “RGA (CAGA-12 luc/Smad-2/3 RGA; IC 50 [pM])” value turned out to be 248 pM.

As to B2, the “CK (IC 50 [pM]), Skeletal Muscle Cell Differentiation Assay (Creatine Kinase)” value worked out at 1200 pM and the “RGA (CAGA-12 luc/Smad-2/3 RGA; IC 50 [pM])” value was 123 pM.

On to B3, for which the “CK (IC 50 [pM]), Skeletal Muscle Cell Differentiation Assay (Creatine Kinase)” value amounted to 1500 pM and the “RGA (CAGA-12 luc/Smad-2/3 RGA; IC 50 [pM])” value turned out to be 329 pM.

Consider B6, for which the “CK (IC 50 [pM]), Skeletal Muscle Cell Differentiation Assay (Creatine Kinase)” value was 3000 pM and the “RGA (CAGA-12 luc/Smad-2/3 RGA; IC 50 [pM])” value was > 100000 pM.

The target of the next test is T5, human TGF-β1. The test can be described thus: cell-based or functional assay.
B8: the “RGA (CAGA-12 luc/Smad-2/3 RGA; IC 50 [pM])” value is 108 pM.

Regarding B1, the “RGA (CAGA-12 luc/Smad-2/3 RGA; IC 50 [pM])” value is > 100000 pM.

In the case of B4, the “RGA (CAGA-12 luc/Smad-2/3 RGA; IC 50 [pM])” value was > 100000 pM.

As for B5, the “RGA (CAGA-12 luc/Smad-2/3 RGA; IC 50 [pM])” value is > 100000 pM.

As to B2, the “RGA (CAGA-12 luc/Smad-2/3 RGA; IC 50 [pM])” value is > 100000 pM.

B3: the “RGA (CAGA-12 luc/Smad-2/3 RGA; IC 50 [pM])” value is > 100000 pM.

Consider B6, for which the “RGA (CAGA-12 luc/Smad-2/3 RGA; IC 50 [pM])” value was > 100000 pM.

The next test concerns the target T1, human recombinant TGF-β2. The test can be described thus: cell-based or functional assay.
Take B8: the “RGA (CAGA-12 luc/Smad-2/3 RGA; IC 50 [pM])” value was found to be 4370 pM.

In the case of B1, the “CK (IC 50 [pM]), Skeletal Muscle Cell Differentiation Assay (Creatine Kinase)” value was 220 pM and the “RGA (CAGA-12 luc/Smad-2/3 RGA; IC 50 [pM])” value amounted to 94 pM.

As for B4, the “CK (IC 50 [pM]), Skeletal Muscle Cell Differentiation Assay (Creatine Kinase)” value amounted to 1050 pM and the “RGA (CAGA-12 luc/Smad-2/3 RGA; IC 50 [pM])” value was determined as 78 pM.

With B5, the “CK (IC 50 [pM]), Skeletal Muscle Cell Differentiation Assay (Creatine Kinase)” value stood at 315 pM and the “RGA (CAGA-12 luc/Smad-2/3 RGA; IC 50 [pM])” value was 106 pM.

As to B2, the “CK (IC 50 [pM]), Skeletal Muscle Cell Differentiation Assay (Creatine Kinase)” value came out at 491 pM and the “RGA (CAGA-12 luc/Smad-2/3 RGA; IC 50 [pM])” value was determined as 29 pM.

Take B3: the “CK (IC 50 [pM]), Skeletal Muscle Cell Differentiation Assay (Creatine Kinase)” value turned out to be 105 pM and the “RGA (CAGA-12 luc/Smad-2/3 RGA; IC 50 [pM])” value worked out at 8.4 pM.

For the molecule B6, the “CK (IC 50 [pM]), Skeletal Muscle Cell Differentiation Assay (Creatine Kinase)” value came out at 366 pM and the “RGA (CAGA-12 luc/Smad-2/3 RGA; IC 50 [pM])” value stood at 2.8 pM.

A further test concerns the target T4, human TGF-β3. The test can be described thus: cell-based or functional assay.
For B8, the “RGA (CAGA-12 luc/Smad-2/3 RGA; IC 50 [pM])” value amounted to 32 pM.

Consider B1, for which the “RGA (CAGA-12 luc/Smad-2/3 RGA; IC 50 [pM])” value is > 100000 pM.

Consider B4, for which the “RGA (CAGA-12 luc/Smad-2/3 RGA; IC 50 [pM])” value was > 100000 pM.

As for B5, the “RGA (CAGA-12 luc/Smad-2/3 RGA; IC 50 [pM])” value is > 100000 pM.

On to B2, for which the “RGA (CAGA-12 luc/Smad-2/3 RGA; IC 50 [pM])” value was > 100000 pM.

B3: the “RGA (CAGA-12 luc/Smad-2/3 RGA; IC 50 [pM])” value is > 100000 pM.

As to B6, the “RGA (CAGA-12 luc/Smad-2/3 RGA; IC 50 [pM])” value is > 100000 pM.

A further test has as its target T5, human TGF-β1. The test can be described thus: cell-based or functional assay. The source holds these as a separate data set.
Regarding B8, the “IC50 (read off the curve) (CAGA-12 luciferase reporter gene assay, HEK293T/17)” value was ~0.5 nM.

For the next test, the target named is T3, mouse recombinant TGF-β2. As to the kind of experiment: BiaCORE (surface plasmon resonance). A general note: In SPR one partner is held on a chip, and binding of the other changes the refractive index at the surface.
In the case of B1, the dissociation constant (Kd) was 0.00236 pM.

As to B4, the Kd stood at 0.00277 pM.

As for B2, the Kd was found to be 0.00109 pM.

As to B3, the Kd came to 0.633 pM.

With B6, the Kd was 1.89 pM.

The target of another test is T1, human recombinant TGF-β2. The test can be described thus: BiaCORE (surface plasmon resonance).
For the molecule B8, the Kd was 117 pM.

As for B1, the Kd was 0.0524 pM.

For the molecule B4, the Kd was found to be 0.00108 pM.

Consider B5, for which the Kd turned out to be 0.97 pM.

B3: the Kd is 0.00446 pM.

In a further test the target is T4, human TGF-β3. As to the kind of experiment: BiaCORE (surface plasmon resonance).
With B8, binding was characterised by a dissociation constant (Kd) of 0.02 nM.

For the molecule B1, the Kd is > 1000 nM.

For the molecule B4, binding was put at a Kd of 0.0199 nM.

Molecule B5 displayed a Kd of 0.0705 nM.

Consider B2, for which the Kd is > 1000 nM.

In the case of B3, binding was put at a Kd of 27.4 nM.

B6: the Kd was > 1000 nM.

A further test deals with T1, human recombinant TGF-β2. As to the kind of experiment: conservative reading of the KD value of Table 4; conservative interpretation of the Table 4 KD, not a new measurement.
For the molecule B4, the Kd was ≤ 0.0001 nM.
